Data published in patent US20250333445A1, “NOVEL POLYPEPTIDES” (Oncopeptides Innovation 1 AB, priority 2022, published 2025).

Biological target: Human BCMA-rFc (BCMA Protein aa 1-54, Human, Recombinant (ECD, rabbit Fc Tag), cat. no. 10620-H15H, Sino Biological) (human) (UniProt Q02223)
Assay: SPR, 200 nM hCD16a over immobilised hBCMA-rFc without engager (background control)

Row | Substance | response signal
1 | hCD16a V158 (Cat. no. CD8-H52H4, Acro Biosystems) (from UniProt P08637 17-208) (receptor) | < 10 RU
2 | hCD16a F158 (Cat. no. CDA-H5220, Acro Biosystems) (from UniProt P08637 17-208) (receptor) | < 10 RU
